System: Bacillus subtilis
Assay: cleaved RNA product abundance (RNA/gDNA barcode ratio) relative to median wild-type variant (ratio to wild type); higher = more accumulation of the downstream cleavage product
Outline: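 Cleaved product abundance was measured with barcoded reporter mRNAs (truncated aprE or tetM) carrying mutagenized RNase Y cleavage-site windows in the B. subtilis chromosome. Cultures in LB at 37°C grew from OD600 0.0003 to 0.3. Gel-selected cleaved RNA was reverse transcribed and barcode-sequenced with genomic DNA barcodes, and the RNA:gDNA barcode ratio per construct was scaled to the median construct bearing the unmutated site.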

[1] = experiment (reporter, strain, medium): exp 2b: truncated aprE reporter, strain BJT200, cleavage site: cggR-gapA (positions -7 to +36 mutated)
[2] = experiment (reporter, strain, medium): exp 4a: truncated aprE reporter, strain BJT201 with 2% xylose (RNase J1 expressed), cleavage site: cggR-gapA (positions -7 to +36 mutated)
[3] = experiment (reporter, strain, medium): exp 8a: truncated aprE reporter, strain BJT201 with 2% xylose (RNase J1 expressed), cleavage site: glnRA (positions -5 to +31 mutated)

“ACAGACGAAGGAGCCGCAAAGAAGTTATTAAGGGATGAATATTCCATCAATATAAATATCTCTCACTTATTTAAA” was tested, and the “cleaved RNA product abundance” value [1] was 0.141 and the “cleaved RNA product abundance” value [2] was 0.312.

“ACAGACGAAGGAGCCGCAAAAAAGTTATTAAGGGATGAATAATCCCTCAAAATAAATATCTCTCACTTATTTAAA” was tested, and the “cleaved RNA product abundance” value [1] was 0.349 and the “cleaved RNA product abundance” value [2] was 0.376.

In the case of “ACAGACGAAGGAGCCGCAAGGAAGTTATTAAGGGATGAATAATCTCTCAATATAAATATCTCTCACTTATTTAAA”, the “cleaved RNA product abundance” value [2] is reported as 0.86.

In the case of “ACAGACGAAGGAGCCGCAAAGAATTTATTAACGGATGAATAATCCCTCAATATAAATATCTCTCACTTATTTAAA”, the “cleaved RNA product abundance” value [2] is reported as 0.203.

For “ACAGACGAAGGAGCCGCAAAGAAGATATAAAGGGATGAATAATCCCTCAATATAAATATCTCTCACTTATTTAAA”, the “cleaved RNA product abundance” value [1] was 0.272 and the “cleaved RNA product abundance” value [2] was 0.514.

With “CGACATGTCCCGCTTCTTTCATTAATCCGTTAGAAACTATTTTGCTATATACATTTACCTTTTAAGAGGAGGAAT” the “cleaved RNA product abundance” value [3] was 0.339.

With “CGACATGTCCCGCTTCTTTCATTAATCCGTTAGCAACTGTTTTGCTATATACAATAACCTTTTAAGAGGAGGAAT” the “cleaved RNA product abundance” value [3] was 0.855.

For “ACAGACGAAGGAGCCGCAAAGAAGTTGTTAAGGGATGAATAATCCCTCAAAATAAATATCTCTCACTTATTTAAA”, the “cleaved RNA product abundance” value [2] was 0.316.

“CGACATGTCCCGCTTCTTTCATTATTCCGTTAGCAACTGTTTTGCTATATACATTTACCGTTTAAGAGGAGGAAT” was tested, and the “cleaved RNA product abundance” value [3] was 1.18.

“ACAGACGAAGGAGCCGCAAATAAGTTATTACGGGATGAATAATCCCTCAATATAAATATCTCTCACTTATTTAAA” was tested, and the “cleaved RNA product abundance” value [2] was 0.36.

With “ACAGACGAAGGAGCCGCAAAGAAGTTATTAAGGGATAAATAATCCTTCAATATAAATATCTCTCACTTATTTAAA” the “cleaved RNA product abundance” value [1] was 0.303 and the “cleaved RNA product abundance” value [2] was 0.338.

“ACAGACGAAGGAGCCGCAAAGAAGTTCTTAAGGGATGAATAATCCCTCAATATAAAAATCTCTCACTTATTTAAA” was tested, and the “cleaved RNA product abundance” value [1] was 0.181.

In the case of “ACAGACGAAGGAGCCACAAAGAAGTTATTAAAGGATGAATAATCCCTCAATATAAATATCTCTCACTTATTTAAA”, the “cleaved RNA product abundance” value (experiment (reporter, strain, medium): exp 6: tetM reporter, strain 168, cleavage site: cggR-gapA (positions -7 to +36 mutated)) is reported as 0.254.

For “CGACATGTCCCGCTTCTTTCATTAATCCGTTAGCAACTGTTTTGAAATATACATTTACCTTTTAAGAGGAGGAAT”, the “cleaved RNA product abundance” value [3] was 0.462.

With “ACAGACGAAGGAGCCGCAAAGAAGTTATTAAGGGATGAATACTTCCTCAATATAAATATCTCTCACTTATTTAAA” the “cleaved RNA product abundance” value [1] was 0.156 and the “cleaved RNA product abundance” value [2] was 0.247.

For “ACAGACGAAGGAGCCGCAAAGAAGCTATAAAGGGATGAATAATCCCTCAATATAAATATCTCTCACTTATTTAAA”, the “cleaved RNA product abundance” value [1] was 0.272 and the “cleaved RNA product abundance” value [2] was 0.357.

“ACAGACGAAGGAGCCGCAAAGAAGCTATTAAGGGATGAATAATCCCTCAATATAAATAACTCTCACTTATTTAAA” was tested, and the “cleaved RNA product abundance” value [2] was 0.674.

With “ACAGACGAAGGAGCCGCAAAGAAGTTATTAATGGATGAATAATCCCTCAATATAATTATCTCTCACTTATTTAAA” the “cleaved RNA product abundance” value [1] was 0.13 and the “cleaved RNA product abundance” value [2] was 0.108.

In the case of “ACAGACGAAGGAGCCGCAAAGAAGTTATTAAGGGACGAATAATCCCTCAATATAAATAGCTCTCACTTATTTAAA”, the “cleaved RNA product abundance” value [2] is reported as 0.3.

With “CGACATGTCCCGCTTCTTTCATTATTCCGTTAGCAACTGTTTTGCTATATAGATTTAACTTTTAAGAGGAGGAAT” the “cleaved RNA product abundance” value [3] was 0.911.

With “ACAGACGAAGGAGCCGCAAAGAAGTTATTAAGGGATGAATAATCACTCAATATAAAAATCTCTCACTTATTTAAA” the “cleaved RNA product abundance” value [2] was 0.136.

For “CGACATGTCCCGCTTCTTTCATTAATCCGTTAGAAACTGTTTTACTATATACATTTACCTTTTAAGAGGAGGAAT”, the “cleaved RNA product abundance” value [3] was 0.422.

“ACAGACGAAGGAGCCGCAAAGAATTTATTAAGGCATGAATAATCCCTCTATATAAATATCTCTCACTTATTTAAA” was tested, and the “cleaved RNA product abundance” value [2] was 0.107.

In the case of “ACAGACGAAGGAGCCGCAAAGAAGTTATTAAGGGATGAATAATCCCACCATATAAATATCTCTCACTTATTTAAA”, the “cleaved RNA product abundance” value [1] is reported as 0.16 and the “cleaved RNA product abundance” value [2] is reported as 0.228.

With “ACAGACGAAGGAGCCGCAAAGAAGTTTTTAAGGGATGAATAATCCCTCAATAAAAATATCTCTCACTTATTTAAA” the “cleaved RNA product abundance” value [2] was 0.0781.

In the case of “CGACATGTCCCGCTTCTTTCATTAATCCGTTAGCAACTGTTTTGCTATATACATTGACCTTTTAAGAGGAGGAAT”, the “cleaved RNA product abundance” value [3] is reported as 0.989.

“CGACATGTCCCGCTTCTTTCATTACTCCGTTAGCAACTGTTTTGCCATATACATTTACCTTTTAAGAGGAGGAAT” was tested, and the “cleaved RNA product abundance” value [3] was 0.246.

With “CGACATGTCCCGCTTCTTTCATTAATACGTTAGCAACTGTTTTGCTATATACATGTACCTTTTAAGAGGAGGAAT” the “cleaved RNA product abundance” value [3] was 0.369.

With “ACAGACGAAGGAGCCGCAAAGAAATTACTAAGGGATGAATAATCCCTCAATATAAATATCTCTCACTTATTTAAA” the “cleaved RNA product abundance” value [2] was 0.247.

From the supplement of paper PMC11780869
